One block for each substance: values may come before it.
Key:
co-repressor peptide = assay: fluorescence polarisation; fluorescence anisotropy assay in vitro, receptor LBD with co-repressor peptide; conditions not shown (Supplementary Methods)
Gal4-NCoR (ID 1 + 2) = assay: mammalian two-hybrid assay (luciferase reporter, HEK293 cells); settings: 20 h, parent: 100, read off a plot

fold reduction of affinity (against the wild-type LBD) (co-repressor peptide): 2 fold
Substance: LXRα ligand-binding domain (LBD) p.M346V (domain or fragment)

percent of parent (Gal4-NCoR (ID 1 + 2); LOF sub-panel, highest T0901317 (T09) dose plotted (rightmost point)): 100 % WT
percent of parent (Gal4-NCoR (ID 1 + 2); LOF sub-panel, untreated condition (leftmost point, plotted an order of magnitude below the lowest T09 dose)): 75 % WT
Substance: LXRα-VP16 (wild-type liver X receptor-α fused to VP16) mutant L217P [human] / Gal4-NCoR (ID 1 + 2) [not stated] chain 1 L217P

percent of parent (Gal4-NCoR (ID 1 + 2); GOF sub-panel, highest T0901317 (T09) dose plotted (rightmost point)): 12 % WT
percent of parent (Gal4-NCoR (ID 1 + 2); GOF sub-panel, untreated condition (leftmost point, plotted an order of magnitude below the lowest T09 dose)): 65 % WT
Substance: LXRα-VP16 (wild-type liver X receptor-α fused to VP16) mutant M346V [human] / Gal4-NCoR (ID 1 + 2) [not stated] chain 1 M346V

Reference: paper PMC11496107
